Experimental data: patent US20040229274A1 (Johns Hopkins, published 2004)
Blank lines part the entries; values can stand above or below the binder they belong to.

Assays:
[1] = molecular target: mGluR4 transiently expressed in HEK-293 cells (UniProt P31423 33-912); experiment: bead-linked GST-Homer pull-down from extracts of transfected HEK-293 cells, immunoblot
Description: (§1) To measure the binding interaction, mGluR5 and mGluR1a were expressed in HEK-293 cells. Cell extracts were mixed with bead-linked GST-Homer and were then eluted with SDS loading buffer. When the C-terminal 4 amino acids of mGluR5 were deleted, binding of the mGluR5 to Homer was reduced by greater than 70% (FIG. 10D, lanes 3 and 4). […] Neither mGluR2 nor mGluR4 bind Homer protein (FIGS. 10B, 10C).
(§2) For experiments examining specificity of Homer binding to metabotropic glutamate receptors, HEK-293 cells were transiently transfected with mGluR1a, mGluR2, mGluR4 or mGluR5 expression constructs, scraped into PBS+1% Triton X100, sonicated 2×10 seconds, centrifuged at 15,000 g for 10 minutes at 4° C., and pre-cleared. Lysate from half of a 10 cm plate was incubated with 50 μl of beads linked to 250 ng of protein and washed as above. Samples were analyzed by western blot analysis using the appropriate polyclonal mGluR antibody. Deletion constructs of Homer were prepared by PCR and cloned as fusion constructs with GST in pGEX (Pharmacia, Piscataway, N.J.).

[2] = molecular target: mGluR2 transiently expressed in HEK-293 cells (UniProt P31421 19-872); experiment: as above
Chain of mGluR2 transiently expressed in HEK-293 cells (P31421 19-872 limits assumed): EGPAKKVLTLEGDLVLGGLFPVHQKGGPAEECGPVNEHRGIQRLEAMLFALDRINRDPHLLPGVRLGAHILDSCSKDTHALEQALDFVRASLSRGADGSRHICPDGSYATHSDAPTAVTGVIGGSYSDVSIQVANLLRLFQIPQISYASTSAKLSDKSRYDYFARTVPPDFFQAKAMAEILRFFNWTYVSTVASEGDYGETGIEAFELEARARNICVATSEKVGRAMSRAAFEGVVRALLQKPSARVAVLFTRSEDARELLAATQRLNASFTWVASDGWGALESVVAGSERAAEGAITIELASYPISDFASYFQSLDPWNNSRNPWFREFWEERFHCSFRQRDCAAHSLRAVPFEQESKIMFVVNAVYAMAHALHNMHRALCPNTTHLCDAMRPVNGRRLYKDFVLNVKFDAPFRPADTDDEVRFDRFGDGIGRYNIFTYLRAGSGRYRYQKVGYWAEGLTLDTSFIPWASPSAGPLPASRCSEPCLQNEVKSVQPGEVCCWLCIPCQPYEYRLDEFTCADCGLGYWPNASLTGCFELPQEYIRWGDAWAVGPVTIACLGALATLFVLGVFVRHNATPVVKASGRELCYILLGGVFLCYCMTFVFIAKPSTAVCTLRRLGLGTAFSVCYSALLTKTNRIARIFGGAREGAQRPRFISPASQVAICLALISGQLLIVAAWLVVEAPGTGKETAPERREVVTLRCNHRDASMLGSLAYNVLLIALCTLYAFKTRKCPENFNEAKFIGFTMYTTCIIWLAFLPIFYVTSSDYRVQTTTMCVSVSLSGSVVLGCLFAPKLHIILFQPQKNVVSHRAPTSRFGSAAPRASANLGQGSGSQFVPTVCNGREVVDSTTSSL
Description: as §1, §2

[3] = molecular target: truncated mGluR5 (C-terminal 4 amino acids deleted) expressed in HEK-293 cells (UniProt P31424); experiment: bead-linked GST-Homer pull-down from HEK-293 cell extracts, immunoblot
[4] = molecular target: T1, C-terminal 195 amino acids of mGluR5 encoded by an interacting cDNA of the rat hippocampus library in pPC86 (rat, UniProt P31424 1009-1203); experiment: yeast GAL4 two-hybrid screen, selection without leucine, tryptophan and histidine, confirmed by β-galactosidase assay
T1 construct: not shown: GAL4 domain supplied by vector pPC86
T1 sequence (P31424 1009-1203): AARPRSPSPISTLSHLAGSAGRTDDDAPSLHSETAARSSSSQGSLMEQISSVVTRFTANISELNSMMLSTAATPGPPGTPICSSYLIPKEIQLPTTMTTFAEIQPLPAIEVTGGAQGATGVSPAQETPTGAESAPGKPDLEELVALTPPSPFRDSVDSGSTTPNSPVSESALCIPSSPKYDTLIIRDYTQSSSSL
Procedure: In experiments carried out in support of the present invention and described in Example 5 herein, the yeast GAL4 two-hybrid system was used to identify binding partners of the rat Homer protein in a rat brain cDNA library (Chevray and Nathans, 1992). A PCR product of the full-length Homer ORF with flanking SmaI sites was subcloned into the yeast expression vector pPC97. A random primed cDNA library was prepared from seizure stimulated adult rat hippocampus and cloned into the yeast expression vector pPC86. The library contains 2×10⁶ independent cDNAs. A total of 1.5×10⁶ clones were screened. Interacting proteins were identified by selection on plates lacking leucine, tryptophan, and histidine, restreaked and confirmed using a β-galactosidase assay.
The full-length Homer ORF with flanking SmaI sites was subdloned into the yeast expression vector pPC97. A random primed cDNA library was prepared from seizure stimulated adult rat hippocampus and cloned into the yeast expression vector pPC86. The library contains 6×10⁶ independent cDNAs and a total of 1.5×10⁶ were screened. Interacting proteins were identified by colony selection on plates lacking leucine, tryptophan, and histidine and confirmed using a β-galactosidase assay (Ausubel, et al., 1992). […]

[5] = molecular target: T2, myc-tagged mGluR5 C-terminus (195 aa) expressed in HEK-293 cells (UniProt P31424 1009-1203); experiment: GST-Homer deletion constructs, pull-down of myc-tagged mGluR5 C-terminus, immunoblot for myc
T2 construct: it is put first here; not shown: myc tag
T2 sequence (P31424 1009-1203 limits assumed): as the sequence (P31424 1009-1203) above

Chain of mGluR4 transiently expressed in HEK-293 cells (P31423 33-912 limits assumed): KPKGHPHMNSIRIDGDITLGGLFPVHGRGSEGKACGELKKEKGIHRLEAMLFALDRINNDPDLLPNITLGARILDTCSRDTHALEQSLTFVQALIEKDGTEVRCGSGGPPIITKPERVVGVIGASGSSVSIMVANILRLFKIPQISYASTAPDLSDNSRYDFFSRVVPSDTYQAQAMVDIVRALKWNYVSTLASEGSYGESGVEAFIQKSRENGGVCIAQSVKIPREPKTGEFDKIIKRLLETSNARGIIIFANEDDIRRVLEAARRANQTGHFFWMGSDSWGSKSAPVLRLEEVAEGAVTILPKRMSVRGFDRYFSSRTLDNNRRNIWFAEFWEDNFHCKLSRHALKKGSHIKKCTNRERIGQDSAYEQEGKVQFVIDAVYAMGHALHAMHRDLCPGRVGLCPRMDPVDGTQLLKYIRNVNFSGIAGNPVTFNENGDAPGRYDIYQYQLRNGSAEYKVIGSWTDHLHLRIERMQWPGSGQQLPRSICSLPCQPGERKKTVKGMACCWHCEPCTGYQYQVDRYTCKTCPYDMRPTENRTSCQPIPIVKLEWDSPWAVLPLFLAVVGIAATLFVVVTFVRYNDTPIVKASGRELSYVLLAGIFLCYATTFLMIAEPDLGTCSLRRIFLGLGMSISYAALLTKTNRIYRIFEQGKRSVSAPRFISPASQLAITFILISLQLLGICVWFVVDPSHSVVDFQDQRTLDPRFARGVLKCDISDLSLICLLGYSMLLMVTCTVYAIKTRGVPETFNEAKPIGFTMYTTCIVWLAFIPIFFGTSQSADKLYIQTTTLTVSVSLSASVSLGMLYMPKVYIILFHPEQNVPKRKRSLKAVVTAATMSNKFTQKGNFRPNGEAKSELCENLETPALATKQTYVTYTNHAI

binding result [1]: no binding
binding result [2]: no binding
reduction of binding against full length mGluR5 [3]: > 70%
B1: GST-Homer fusion protein (full length rat Homer, 1-186, fused to glutathione-S-transferase) (other)
chain: MGEQPIFSTRAHVFQIDPNTKKNWVPTSKHAVTVSYFYDSTRNVYRIISLDGSKAIINSTITPNMTFTKTSQKFGQWADSRANTVYGLGFSSEHHLSKFAEKFQEFKEAARLAKEKSQEKMELTSTPSQESAGGDLQSPLTPESINGTDDERTPDVTQNSEPRAEPAQNALPFSHRYTFNSAIMIK
notes: Bacterially expressed from pGEX; GST is put first as usual for pGEX; also called Homer GST fusion protein; Homer-GST fusion protein; not shown: glutathione-S-transferase (GST) encoded by the bacterial vector pGEX (Pharmacia)

binding result [4]: binds
B2: full-length Homer ORF in yeast expression vector pPC97 (GAL4 two-hybrid fusion) (other)
chain: B1 chain
notes: also called Homer (two-hybrid bait); not shown: GAL4 domain supplied by vector pPC97

binding result [5]: no binding
B3: GST-Homer deletion construct, Homer fragment 109-186 (N-terminal 108 amino acids deleted) (other, not shown: a dimerising Fc or GST; large carriers; small tags and cut ends)
chain: AARLAKEKSQEKMELTSTPSQESAGGDLQSPLTPESINGTDDERTPDVTQNSEPRAEPAQNALPFSHRYTFNSAIMIK
notes: GST put first as usual for pGEX
